T1: PCLO, Q9Y6V0
T1 sequence (Q9Y6V0 4491-4600, limits assumed, looked up): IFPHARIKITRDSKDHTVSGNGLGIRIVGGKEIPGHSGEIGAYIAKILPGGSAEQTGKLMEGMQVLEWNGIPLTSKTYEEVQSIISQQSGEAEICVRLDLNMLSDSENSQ

T2: SYNJ2BP, P57105
T2 sequence (P57105 8-110, limits assumed, looked up): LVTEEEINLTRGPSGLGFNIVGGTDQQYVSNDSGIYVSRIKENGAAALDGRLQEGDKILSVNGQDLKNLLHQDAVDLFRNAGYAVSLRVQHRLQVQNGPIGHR

T3: RHPN1, Q8TCX5
T3 sequence (Q8TCX5 508-602, limits assumed, looked up): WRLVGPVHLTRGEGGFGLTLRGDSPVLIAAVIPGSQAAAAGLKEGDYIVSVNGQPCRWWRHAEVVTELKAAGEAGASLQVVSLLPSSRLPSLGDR

T4: NHERF3_4, Q5T2W1
T4 sequence (Q5T2W1 373-468, limits assumed, looked up): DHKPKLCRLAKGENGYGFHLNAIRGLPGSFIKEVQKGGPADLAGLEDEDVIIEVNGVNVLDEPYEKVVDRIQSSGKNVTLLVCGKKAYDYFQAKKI

T5: GRIP1_7, Q9Y3R0
T5 sequence (Q9Y3R0 999-1096, limits assumed, looked up): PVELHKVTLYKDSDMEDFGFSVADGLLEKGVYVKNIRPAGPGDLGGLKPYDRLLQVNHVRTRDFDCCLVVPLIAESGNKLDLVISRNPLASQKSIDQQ

T6: MPDZ_5, O75970
T6 sequence (O75970 695-796, limits assumed, looked up): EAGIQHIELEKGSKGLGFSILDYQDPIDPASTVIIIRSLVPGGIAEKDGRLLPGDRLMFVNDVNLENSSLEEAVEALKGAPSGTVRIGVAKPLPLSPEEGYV

T7: SNTA1, Q13424
T7 sequence (Q13424 82-180, limits assumed, looked up): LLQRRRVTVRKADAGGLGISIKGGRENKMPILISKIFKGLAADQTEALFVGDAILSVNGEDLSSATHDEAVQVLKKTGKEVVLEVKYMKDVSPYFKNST

T8: LRRC7, Q96NW7
T8 sequence (Q96NW7 1440-1537, limits assumed, looked up): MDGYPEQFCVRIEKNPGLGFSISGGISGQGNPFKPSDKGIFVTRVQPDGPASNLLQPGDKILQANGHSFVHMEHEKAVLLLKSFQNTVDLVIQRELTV

T9: NHERF3_3, Q5T2W1
T9 sequence (Q5T2W1 238-333, limits assumed, looked up): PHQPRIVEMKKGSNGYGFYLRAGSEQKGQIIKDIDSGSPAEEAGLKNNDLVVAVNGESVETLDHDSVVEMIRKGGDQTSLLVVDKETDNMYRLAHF

T10: TX1BP3, O14907
T10 sequence (O14907 10-122, limits assumed, looked up): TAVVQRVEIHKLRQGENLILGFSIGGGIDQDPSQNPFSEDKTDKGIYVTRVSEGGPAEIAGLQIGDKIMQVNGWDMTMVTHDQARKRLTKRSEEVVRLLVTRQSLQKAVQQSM

T11: MPP7, Q5T2T1
T11 sequence (Q5T2T1 134-230, limits assumed, looked up): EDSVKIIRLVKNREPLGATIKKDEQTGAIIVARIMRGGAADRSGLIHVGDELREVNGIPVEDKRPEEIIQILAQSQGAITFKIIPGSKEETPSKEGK

T12: GRIP1_3, Q9Y3R0
T12 sequence (Q9Y3R0 247-346, limits assumed, looked up): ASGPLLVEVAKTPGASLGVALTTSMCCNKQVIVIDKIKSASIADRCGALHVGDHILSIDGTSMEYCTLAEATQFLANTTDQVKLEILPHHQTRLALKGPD


What follows are binders tested against T1, PCLO, Q9Y6V0 (assay: holdup assay). Settings: plain residues with an end cap or a label only (N-terminal biotin on a linker: ado-ado).
Set-up: key: below the threshold = too weak to quantify, mostly under pKd 3.1 to 4

Row | Binder | pKd
1 | QPCFNKLFPL [LPXN, O60711] | below the threshold
2 | SSALYGESDL [ACTN2, P35609] | below the threshold

What follows are binders tested against T2, SYNJ2BP, P57105 (assay: holdup assay). Settings: plain residues with an end cap or a label only (N-terminal biotin on a linker: ado-ado).
Set-up: key: below the threshold = too weak to quantify, mostly under pKd 3.1 to 4

Row | Binder | pKd
3 | QPCFNKLFPL [LPXN, O60711] | below the threshold
4 | SSALYGESDL [ACTN2, P35609] | 3.87

The binders below were run against T3, RHPN1, Q8TCX5 (assay: holdup assay). Settings: plain residues with an end cap or a label only (N-terminal biotin on a linker: ado-ado).
Set-up: key: below the threshold = too weak to quantify, mostly under pKd 3.1 to 4

Row | Binder | pKd
5 | QPCFNKLFPL [LPXN, O60711] | below the threshold
6 | SSALYGESDL [ACTN2, P35609] | 3.51

Each binder was assayed against HTRA1, Q92743 (assay: holdup assay). Settings: plain residues with an end cap or a label only (N-terminal biotin on a linker: ado-ado).
HTRA1, Q92743, sequence (Q92743 360-477): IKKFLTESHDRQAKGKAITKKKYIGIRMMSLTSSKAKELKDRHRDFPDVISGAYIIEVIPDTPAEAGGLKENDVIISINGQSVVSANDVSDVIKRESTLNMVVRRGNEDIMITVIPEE
Set-up: key: below the threshold = too weak to quantify, mostly under pKd 3.1 to 4

Row | Binder | pKd
7 | QPCFNKLFPL [LPXN, O60711] | below the threshold
8 | SSALYGESDL [ACTN2, P35609] | below the threshold

The binders below were run against MAGI2_4, Q86UL8 (assay: holdup assay). Settings: plain residues with an end cap or a label only (N-terminal biotin on a linker: ado-ado).
MAGI2_4, Q86UL8, sequence (Q86UL8 772-865): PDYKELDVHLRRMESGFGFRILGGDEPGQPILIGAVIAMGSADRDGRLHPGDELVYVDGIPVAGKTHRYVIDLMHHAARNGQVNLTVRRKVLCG
Set-up: key: below the threshold = too weak to quantify, mostly under pKd 3.1 to 4

Row | Binder | pKd
9 | QPCFNKLFPL [LPXN, O60711] | below the threshold
10 | SSALYGESDL [ACTN2, P35609] | below the threshold

The binders below were run against Inadl_5, Q8NI35 (assay: holdup assay). Settings: plain residues with an end cap or a label only (N-terminal biotin on a linker: ado-ado).
Inadl_5, Q8NI35, sequence (Q8NI35 673-780): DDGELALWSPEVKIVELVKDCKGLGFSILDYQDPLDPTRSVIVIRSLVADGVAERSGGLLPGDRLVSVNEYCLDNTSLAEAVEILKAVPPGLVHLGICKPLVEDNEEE
Set-up: key: below the threshold = too weak to quantify, mostly under pKd 3.1 to 4

Row | Binder | pKd
11 | QPCFNKLFPL [LPXN, O60711] | below the threshold
12 | SSALYGESDL [ACTN2, P35609] | below the threshold

What follows are binders tested against PDZRN4_1, Q6ZMN7 (assay: holdup assay). Settings: plain residues with an end cap or a label only (N-terminal biotin on a linker: ado-ado).
PDZRN4_1, Q6ZMN7, sequence (Q6ZMN7 213-318): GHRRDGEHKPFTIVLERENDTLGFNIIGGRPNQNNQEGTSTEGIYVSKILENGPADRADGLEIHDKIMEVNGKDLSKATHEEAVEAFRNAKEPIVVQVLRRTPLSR
Set-up: key: below the threshold = too weak to quantify, mostly under pKd 3.1 to 4

Row | Binder | pKd
13 | QPCFNKLFPL [LPXN, O60711] | below the threshold
14 | SSALYGESDL [ACTN2, P35609] | 3.62

What follows are binders tested against T4, NHERF3_4, Q5T2W1 (assay: holdup assay). Settings: plain residues with an end cap or a label only (N-terminal biotin on a linker: ado-ado).
Set-up: key: below the threshold = too weak to quantify, mostly under pKd 3.1 to 4

Row | Binder | pKd
15 | QPCFNKLFPL [LPXN, O60711] | 3.73
16 | SSALYGESDL [ACTN2, P35609] | below the threshold

The binders below were run against MAST1, Q9Y2H9 (assay: holdup assay). Settings: plain residues with an end cap or a label only (N-terminal biotin on a linker: ado-ado).
MAST1, Q9Y2H9, sequence (Q9Y2H9 962-1065): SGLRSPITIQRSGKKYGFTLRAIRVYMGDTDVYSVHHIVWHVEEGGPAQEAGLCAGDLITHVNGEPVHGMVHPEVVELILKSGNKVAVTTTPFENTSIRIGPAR
Set-up: key: below the threshold = too weak to quantify, mostly under pKd 3.1 to 4

Row | Binder | pKd
17 | QPCFNKLFPL [LPXN, O60711] | 4.33
18 | SSALYGESDL [ACTN2, P35609] | 4.18

These binders were tested against DLG5_1, Q8TDM6 (assay: holdup assay). Settings: plain residues with an end cap or a label only (N-terminal biotin on a linker: ado-ado).
DLG5_1, Q8TDM6, sequence (Q8TDM6 617-713): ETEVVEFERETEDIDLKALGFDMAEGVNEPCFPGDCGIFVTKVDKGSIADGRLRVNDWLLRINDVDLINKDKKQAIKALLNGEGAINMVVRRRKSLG
Set-up: key: below the threshold = too weak to quantify, mostly under pKd 3.1 to 4

Row | Binder | pKd
19 | QPCFNKLFPL [LPXN, O60711] | below the threshold
20 | SSALYGESDL [ACTN2, P35609] | below the threshold

Each binder was assayed against T5, GRIP1_7, Q9Y3R0 (assay: holdup assay). Settings: plain residues with an end cap or a label only (N-terminal biotin on a linker: ado-ado).
Set-up: key: below the threshold = too weak to quantify, mostly under pKd 3.1 to 4

Row | Binder | pKd
21 | QPCFNKLFPL [LPXN, O60711] | below the threshold
22 | SSALYGESDL [ACTN2, P35609] | below the threshold

Each binder was assayed against T6, MPDZ_5, O75970 (assay: holdup assay). Settings: plain residues with an end cap or a label only (N-terminal biotin on a linker: ado-ado).
Set-up: key: below the threshold = too weak to quantify, mostly under pKd 3.1 to 4

Row | Binder | pKd
23 | QPCFNKLFPL [LPXN, O60711] | below the threshold
24 | SSALYGESDL [ACTN2, P35609] | below the threshold

The binders below were run against MAGI2_3, Q86UL8 (assay: holdup assay). Settings: plain residues with an end cap or a label only (N-terminal biotin on a linker: ado-ado).
MAGI2_3, Q86UL8, sequence (Q86UL8 600-682): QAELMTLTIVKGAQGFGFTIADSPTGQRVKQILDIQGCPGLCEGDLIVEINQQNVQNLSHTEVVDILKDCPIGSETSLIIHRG
Set-up: key: below the threshold = too weak to quantify, mostly under pKd 3.1 to 4

Row | Binder | pKd
25 | QPCFNKLFPL [LPXN, O60711] | below the threshold
26 | SSALYGESDL [ACTN2, P35609] | below the threshold

What follows are binders tested against LIMK2, P53671 (assay: holdup assay). Settings: plain residues with an end cap or a label only (N-terminal biotin on a linker: ado-ado).
LIMK2, P53671, sequence (P53671 143-248): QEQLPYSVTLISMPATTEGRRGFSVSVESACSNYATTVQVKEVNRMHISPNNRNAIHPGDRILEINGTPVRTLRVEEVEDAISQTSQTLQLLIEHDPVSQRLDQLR
Set-up: key: below the threshold = too weak to quantify, mostly under pKd 3.1 to 4

Row | Binder | pKd
27 | QPCFNKLFPL [LPXN, O60711] | below the threshold
28 | SSALYGESDL [ACTN2, P35609] | below the threshold

These binders were tested against DLG2_3, Q15700 (assay: holdup assay). Settings: plain residues with an end cap or a label only (N-terminal biotin on a linker: ado-ado).
Set-up: key: below the threshold = too weak to quantify, mostly under pKd 3.1 to 4

Row | Binder | pKd
29 | QPCFNKLFPL [LPXN, O60711] | below the threshold
30 | SSALYGESDL [ACTN2, P35609] | 3.94

The binders below were run against T7, SNTA1, Q13424 (assay: holdup assay). Settings: plain residues with an end cap or a label only (N-terminal biotin on a linker: ado-ado).
Set-up: key: below the threshold = too weak to quantify, mostly under pKd 3.1 to 4

Row | Binder | pKd
31 | QPCFNKLFPL [LPXN, O60711] | below the threshold
32 | SSALYGESDL [ACTN2, P35609] | 3.59

Each binder was assayed against GRIP2_7, Q9C0E4 (assay: holdup assay). Settings: plain residues with an end cap or a label only (N-terminal biotin on a linker: ado-ado).
GRIP2_7, Q9C0E4, sequence (Q9C0E4 934-1023): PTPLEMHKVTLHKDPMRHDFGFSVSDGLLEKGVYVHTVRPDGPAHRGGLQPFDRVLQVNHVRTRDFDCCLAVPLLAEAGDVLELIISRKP
Set-up: key: below the threshold = too weak to quantify, mostly under pKd 3.1 to 4

Row | Binder | pKd
33 | QPCFNKLFPL [LPXN, O60711] | 3.69
34 | SSALYGESDL [ACTN2, P35609] | below the threshold

What follows are binders tested against T8, LRRC7, Q96NW7 (assay: holdup assay). Settings: plain residues with an end cap or a label only (N-terminal biotin on a linker: ado-ado).
Set-up: key: below the threshold = too weak to quantify, mostly under pKd 3.1 to 4

Row | Binder | pKd
35 | QPCFNKLFPL [LPXN, O60711] | below the threshold
36 | SSALYGESDL [ACTN2, P35609] | 3.86

The binders below were run against T9, NHERF3_3, Q5T2W1 (assay: holdup assay). Settings: plain residues with an end cap or a label only (N-terminal biotin on a linker: ado-ado).
Set-up: key: below the threshold = too weak to quantify, mostly under pKd 3.1 to 4

Row | Binder | pKd
37 | QPCFNKLFPL [LPXN, O60711] | below the threshold
38 | SSALYGESDL [ACTN2, P35609] | below the threshold

Each binder was assayed against T10, TX1BP3, O14907 (assay: holdup assay). Settings: plain residues with an end cap or a label only (N-terminal biotin on a linker: ado-ado).
Set-up: key: below the threshold = too weak to quantify, mostly under pKd 3.1 to 4

Row | Binder | pKd
39 | QPCFNKLFPL [LPXN, O60711] | below the threshold
40 | SSALYGESDL [ACTN2, P35609] | 4.9

These binders were tested against T11, MPP7, Q5T2T1 (assay: holdup assay). Settings: plain residues with an end cap or a label only (N-terminal biotin on a linker: ado-ado).
Set-up: key: below the threshold = too weak to quantify, mostly under pKd 3.1 to 4

Row | Binder | pKd
41 | QPCFNKLFPL [LPXN, O60711] | 4.05
42 | SSALYGESDL [ACTN2, P35609] | below the threshold

These binders were tested against T12, GRIP1_3, Q9Y3R0 (assay: holdup assay). Settings: plain residues with an end cap or a label only (N-terminal biotin on a linker: ado-ado).
Set-up: key: below the threshold = too weak to quantify, mostly under pKd 3.1 to 4

Row | Binder | pKd
43 | QPCFNKLFPL [LPXN, O60711] | below the threshold
44 | SSALYGESDL [ACTN2, P35609] | below the threshold

Each binder was assayed against DLG2_2, Q15700 (assay: holdup assay). Settings: plain residues with an end cap or a label only (N-terminal biotin on a linker: ado-ado).
Set-up: key: below the threshold = too weak to quantify, mostly under pKd 3.1 to 4

Row | Binder | pKd
45 | QPCFNKLFPL [LPXN, O60711] | below the threshold
46 | SSALYGESDL [ACTN2, P35609] | 3.52

Each binder was assayed against GRID2IP_2, A4D2P6 (assay: holdup assay). Settings: plain residues with an end cap or a label only (N-terminal biotin on a linker: ado-ado).
GRID2IP_2, A4D2P6, sequence (A4D2P6 272-370): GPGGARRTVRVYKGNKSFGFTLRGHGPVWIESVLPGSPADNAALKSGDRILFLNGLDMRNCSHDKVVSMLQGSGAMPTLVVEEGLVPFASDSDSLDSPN
Set-up: key: below the threshold = too weak to quantify, mostly under pKd 3.1 to 4

Row | Binder | pKd
47 | QPCFNKLFPL [LPXN, O60711] | below the threshold
48 | SSALYGESDL [ACTN2, P35609] | below the threshold

Each binder was assayed against DLG1_2, Q12959 (assay: holdup assay). Settings: plain residues with an end cap or a label only (N-terminal biotin on a linker: ado-ado).
DLG1_2, Q12959, sequence (Q12959 314-412): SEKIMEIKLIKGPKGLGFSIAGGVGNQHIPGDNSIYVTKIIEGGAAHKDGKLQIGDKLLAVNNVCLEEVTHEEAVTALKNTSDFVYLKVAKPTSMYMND
Set-up: key: below the threshold = too weak to quantify, mostly under pKd 3.1 to 4

Row | Binder | pKd
49 | QPCFNKLFPL [LPXN, O60711] | below the threshold
50 | SSALYGESDL [ACTN2, P35609] | below the threshold

Source: paper PMC9482650, “Quantitative fragmentomics allow affinity mapping of interactomes” (Nature Communications, 2022)
